Among the data in PMC314469, “Protein Interaction Networks by Proteome Peptide Scanning” (PLoS Biology, 2004) are normalised SPOT signal, Boehringer light units (BLU); mean over the file's lines of this peptide values, retold here.

Holding throughout (test): SPOT array
Assay [1] concerns the target T1, Boi1 SH3 (BOI1_YEAST), P38041.
T1 chain: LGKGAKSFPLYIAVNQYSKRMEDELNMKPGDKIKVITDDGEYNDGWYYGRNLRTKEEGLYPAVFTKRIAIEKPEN

Assay [2] deals with T2, Boi2 SH3 (BOI2_YEAST), P39969.
T2 chain: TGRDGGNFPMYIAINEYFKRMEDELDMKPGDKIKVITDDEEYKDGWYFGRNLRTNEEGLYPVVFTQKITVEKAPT

Assay [3] has as its target T3, Yfr024 SH3 (LSB3_YEAST), P43603.
T3 chain: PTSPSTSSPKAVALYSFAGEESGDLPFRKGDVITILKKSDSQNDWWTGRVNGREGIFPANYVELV

The target in assay [4] is T4, Yhr016c SH3 (YSC84_YEAST), P32793.
T4 chain: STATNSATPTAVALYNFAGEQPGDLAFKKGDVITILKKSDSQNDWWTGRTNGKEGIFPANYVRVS

Assay [5] addresses T5, Rvs167 SH3 (RV167_YEAST), P39743.
T5 chain: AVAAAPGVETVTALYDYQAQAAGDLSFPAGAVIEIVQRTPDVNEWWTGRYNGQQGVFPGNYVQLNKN

B1: YJR025C 93-106 (peptide)
chain: GNVPHSPVRFADTV
With B1, the normalised SPOT signal, Boehringer light units (BLU); mean over the file's lines of this peptide in assay [1] amounted to 115; in assay [2] it was 29.6; in assay [3] it was 0.8; in assay [4], 49; in assay [5], 36.2.

B2: YCR073C 1268-1281 (peptide)
chain: GRIPQLPNRDEMTA
With B2, the normalised SPOT signal, Boehringer light units (BLU); mean over the file's lines of this peptide in assay [1] stood at 78.4; in assay [2], 54.1; in assay [3], 11500; in assay [4], 20900; in assay [5] it was 11900.

B3: YOR025W 379-392 (peptide)
chain: GTPPTTPLRTAQGI
As for B3, the normalised SPOT signal, Boehringer light units (BLU); mean over the file's lines of this peptide was found to be 97.3 in assay [1]; 36 in assay [2]; 5740 in assay [3]; 2770 in assay [4]; 197 in assay [5].

B4: YDR093W 1469-1482 (peptide)
chain: GYDPTDPSRPRINE
Take B4: the normalised SPOT signal, Boehringer light units (BLU); mean over the file's lines of this peptide in assay [1] is 98.5; in assay [2], 34.7; in assay [3], -0; in assay [4], 257; in assay [5] it was 71.5.

B5: YKL204W 471-484 (peptide)
chain: GVPPNFPQRMMPPP
In the case of B5, the normalised SPOT signal, Boehringer light units (BLU); mean over the file's lines of this peptide was 58.2 in assay [1]; 84.6 in assay [2]; 1870 in assay [3]; 283 in assay [4]; 58.8 in assay [5].

B6: YPL023C 580-593 (peptide)
chain: GVFPNSPVKQTTII
Consider B6, for which the normalised SPOT signal, Boehringer light units (BLU); mean over the file's lines of this peptide in assay [1] turned out to be 64.4; in assay [2], 97.9; in assay [3] it was 269; in assay [4], 116; in assay [5] it was 4.

B7: YGL156W 66-79 (peptide)
chain: GSSPVSPDKRPSWK
Regarding B7, the normalised SPOT signal, Boehringer light units (BLU); mean over the file's lines of this peptide was 69.6 in assay [1]; 18.6 in assay [2]; 223 in assay [3]; 493 in assay [4]; 50.3 in assay [5].

B8: YIL002C 144-157 (peptide)
chain: HEHPSGPLKKLFSD
Take B8: the normalised SPOT signal, Boehringer light units (BLU); mean over the file's lines of this peptide in assay [1] was 1.6; in assay [2], -0; in assay [3], 167; in assay [4] it was -0; in assay [5], 13.3.

B9: YLR191W 299-312 (peptide)
chain: GSEPIDPSKLEFAR
As for B9, the normalised SPOT signal, Boehringer light units (BLU); mean over the file's lines of this peptide in assay [1] amounted to 57.5; in assay [2], 25.3; in assay [3], 53.6; in assay [4] it was 37.9; in assay [5], 33.

B10: YOR181W 384-397 (peptide)
chain: GPAPPPPPRASRPT
Regarding B10, the normalised SPOT signal, Boehringer light units (BLU); mean over the file's lines of this peptide in assay [1] was 10300; in assay [2], 55.8; in assay [3], 6370; in assay [4], 2360; in assay [5], 3120.

B11: YJR126C 478-491 (peptide)
chain: GWKPLRPIKLISWD
As to B11, the normalised SPOT signal, Boehringer light units (BLU); mean over the file's lines of this peptide in assay [1] amounted to 59.3; in assay [2] it was 236; in assay [3], 12000; in assay [4] it was 407; in assay [5] it was 286.

B12: YER166W 1426-1439 (peptide)
chain: GYDPTDPNRPKVTK
Regarding B12, the normalised SPOT signal, Boehringer light units (BLU); mean over the file's lines of this peptide in assay [1] was 108; in assay [2], 52.4; in assay [3], 54.7; in assay [4], 69.3; in assay [5], 35.5.

B13: YLR224W 329-342 (peptide)
chain: HGLPYKPSKLIRIF
On to B13, for which the normalised SPOT signal, Boehringer light units (BLU); mean over the file's lines of this peptide in assay [1] is 80.3; in assay [2], 60.3; in assay [3], 747; in assay [4], 222; in assay [5], 67.7.

B14: YML065W 331-344 (peptide)
chain: GRKPKDPSKPRQML
Turning to B14, the normalised SPOT signal, Boehringer light units (BLU); mean over the file's lines of this peptide came to 147 in assay [1]; 42.2 in assay [2]; 268 in assay [3]; 160 in assay [4]; 31.8 in assay [5].

B15: YBL007C 192-205 (peptide)
chain: GPPPAMPARPTATT
On to B15, for which the normalised SPOT signal, Boehringer light units (BLU); mean over the file's lines of this peptide in assay [1] came out at 86.8; in assay [2], 140; in assay [3], 11500; in assay [4] it was 1070; in assay [5] it was 83.3.

B16: YBR026C 71-84 (peptide)
chain: GVYPSRPEKTYDYS
Turning to B16, the normalised SPOT signal, Boehringer light units (BLU); mean over the file's lines of this peptide in assay [1] was determined as 111; in assay [2] it was 47.3; in assay [3], 470; in assay [4], 113; in assay [5] it was 12.9.

B17: YDR188W 219-232 (peptide)
chain: GRHPDMPTRVKNAY
B17: the normalised SPOT signal, Boehringer light units (BLU); mean over the file's lines of this peptide was 104 in assay [1]; 44.5 in assay [2]; 768 in assay [3]; 152 in assay [4]; 148 in assay [5].

B18: YDL245C 44-57 (peptide)
chain: GNTPDAPKRGFLGY
For the molecule B18, the normalised SPOT signal, Boehringer light units (BLU); mean over the file's lines of this peptide in assay [1] worked out at 86.5; in assay [2], 27.7; in assay [3], 658; in assay [4], 230; in assay [5], 37.1.

B19: YGR080W 307-320 (peptide)
chain: GSNPDLPNKSNLKF
Consider B19, for which the normalised SPOT signal, Boehringer light units (BLU); mean over the file's lines of this peptide in assay [1] was 163; in assay [2], 38.5; in assay [3], 637; in assay [4] it was 180; in assay [5] it was 26.2.
